Experiment [1] has as its target T1, HLA-A*02:01 expressed on the surface of cancer cells (human).
T1 construct: whole, on cells; also called cell-surface HLA-A*02:01; HLA-A2
The experiment can be described thus: summary table, column MHC-1 display at 4 C.

The target in experiment [2] is T1, HLA-A*02:01 expressed on the surface of …. Nature of the experiment: flow cytometry, MDA-MB-231 cells (4 °C scheme of FIG. 9a), detection with C1-17. A general note: A flow cytometer gives signals particle by particle.
In experiment [3] the target is T2, CMVp495-503/HLA-A*02:01 complex (cytomegalovirus (CMV); human).
T2 construct: whole, on cells; also called CMV peptide-MHC-I complex
The experiment can be described thus: flow cytometry, cancer cells pulsed with CMVp495-503 peptide, anti-mouse Fc secondary.
Description: A negative control group not treated with peptide was added with DMSO. After 3 hours, centrifugation was performed at 1300 rpm for 3 minutes to remove the supernatant containing the peptide not bound to the cells, and the cells were washed with a FACS buffer and centrifuged at 1300 rpm for 3 minutes to remove the supernatant. […] After each sample was washed with 1 ml of a FACS buffer, a F(ab′)₂ antibody that specifically recognizes Alexa647 (red fluorescence)-conjugated mouse Fc was diluted 1:1200 in 100 μl of a FACS buffer, followed by reaction at 4° C. for 30 minutes. The cells were washed with 1 ml of a FACS buffer and then analyzed through flow cytometry.

From patent US20230076637A1 (AJOU UNIVERSITY INDUSTRY ACADEMIC COOPERATION FOUNDATION, published 2023) come the findings set out here.

B1: inCT99†CMVp480-503 fusion antibody (antibody)
heavy: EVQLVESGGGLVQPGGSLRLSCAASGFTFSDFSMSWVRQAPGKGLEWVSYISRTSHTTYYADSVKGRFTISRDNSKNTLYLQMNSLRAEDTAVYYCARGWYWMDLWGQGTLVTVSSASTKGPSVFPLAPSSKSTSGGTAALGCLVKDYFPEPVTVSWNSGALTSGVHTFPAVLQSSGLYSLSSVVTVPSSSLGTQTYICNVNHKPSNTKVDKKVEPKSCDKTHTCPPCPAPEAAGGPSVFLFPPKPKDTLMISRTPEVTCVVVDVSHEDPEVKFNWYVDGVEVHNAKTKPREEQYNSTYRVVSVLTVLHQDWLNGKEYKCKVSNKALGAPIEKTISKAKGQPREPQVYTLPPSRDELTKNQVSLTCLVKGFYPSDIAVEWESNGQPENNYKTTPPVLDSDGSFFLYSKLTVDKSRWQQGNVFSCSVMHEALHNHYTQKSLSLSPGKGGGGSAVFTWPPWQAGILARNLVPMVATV
light: SDGVRQCRGDCFDGPLMGSSSNDIQMTQSPSSLSASVGDRVTITCKSSQSLLNSRDGKNYLAWYQQKPGKAPKLLIYDASNLETGVPSRFSGSGSGTDFTFTISSLQPEDIATYFCQQYWYWMYTFGGGTKVEIKRTVAAPSVFIFPPSDEQLKSGTASVVCLLNNFYPREAKVQWKVDNALQSGNSQESVTEQDSKDSTYSLSSTLTLSKADYEKHKVYACEVTHQGLSSPVTKSFNRGEC
Take B1: in experiment [1], the binding result is “binds”.

B2: inCT99†CMVp480-510 fusion antibody (antibody)
heavy: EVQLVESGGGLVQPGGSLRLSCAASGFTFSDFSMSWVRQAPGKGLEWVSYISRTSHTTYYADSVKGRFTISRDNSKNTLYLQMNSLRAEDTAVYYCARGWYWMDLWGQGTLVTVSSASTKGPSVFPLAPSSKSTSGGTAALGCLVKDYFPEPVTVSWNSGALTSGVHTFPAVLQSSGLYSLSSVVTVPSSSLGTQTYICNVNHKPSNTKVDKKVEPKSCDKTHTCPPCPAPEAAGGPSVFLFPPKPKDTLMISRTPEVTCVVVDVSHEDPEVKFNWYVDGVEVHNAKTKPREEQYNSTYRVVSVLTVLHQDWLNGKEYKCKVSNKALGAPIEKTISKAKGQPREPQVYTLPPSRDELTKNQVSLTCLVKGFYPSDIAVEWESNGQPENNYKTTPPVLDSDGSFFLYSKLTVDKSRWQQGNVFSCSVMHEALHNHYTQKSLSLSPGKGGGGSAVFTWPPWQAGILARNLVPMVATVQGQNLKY
light: SDGVRQCRGDCFDGPLMGSSSNDIQMTQSPSSLSASVGDRVTITCKSSQSLLNSRDGKNYLAWYQQKPGKAPKLLIYDASNLETGVPSRFSGSGSGTDFTFTISSLQPEDIATYFCQQYWYWMYTFGGGTKVEIKRTVAAPSVFIFPPSDEQLKSGTASVVCLLNNFYPREAKVQWKVDNALQSGNSQESVTEQDSKDSTYSLSSTLTLSKADYEKHKVYACEVTHQGLSSPVTKSFNRGEC
For B2, the binding result in experiment [2] is reported as “no binding”.

B3: H9#1 TCR-like antibody (antibody, mouse IgG2a, kappa, V domains shown)
VH: EVQLVQSGAEVKKPGSSVKVSCKASGGTFSSYAISWVRQAPGQGLEWMGGIIPIFGTANYAQKFQGRVTITADESTSTAYMELSSLRSEDTAVYYCARGDLYYYDSSGYPLWYMDYWGQGTLVTVSS
VL: ETTLTQSPGTLSLSPGERATLSCRASQSVSSSYLAWYQQKPGQAPRLVIYGASSRATGIPDRFSGSGSGTDFTLTISRLEPEDFAVYYCQDYSTYPAFTFGQGTKLEIRR
As to B3, in experiment [3], the binding result is “binds”.

B4: C1-17 TCR-like antibody (antibody, mouse IgG2a, kappa, V domains shown)
VH: EVQLVQSGAEVKKPGSSVKVSCKASGGTFSSYAISWVRQAPGQGLEWMGSIIPIFGVAEYAHKFQGRVTITADESTSTAYMELSSLRSEDTAVYYCARGDLYYYDSSGYPLWYMDYWGQGTLVTVSS
VL: ETTLTQSPGTLSLSPGERATLSCRASQSVSSSYLAWYQQKPGQAPRLVIYGASTRPTGIPDRFSGSGSGTDFTLTISRLEPEDFAVYYCQDYSTYPAFTFGQGTKLEIRR
For B4, in experiment [3], the binding result is on record as “binds”.

B5: H9 TCR-like antibody (antibody, mouse IgG2a, kappa, V domains shown)
VH: EVQLVQSGAEVKKPGSSVKVSCKASGGTFSSYAISWVRQAPGQGLEWMGGIIPIFGTANYAQKFQGRVTITADESTSTAYMELSSLRSEDTAVYYCARGDLYYYDSSGYPRYYFDYWGQGTLVTVSS
VL: ETTLTQSPGTLSLSPGERATLSCRASQSVSSSYLAWYQQKPGQAPRLVIYGASSRATGIPDRFSGSGSGTDFTLTISRLEPEDFAVYYCQHYSTSPGFTFGQGTKLEIRR
With B5, the binding result in experiment [3] is reported as “binds”.
